Tested on: K4 kissing-loop RNA reporter
Assay: apparent KD of K4 kissing-loop reporter; higher = weaker reporter binding
Details: Eterna round: R107
Experimental: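 RNA-MaP round R107: designed RNA switches with theophylline, tryptophan, arginine or FMN aptamers are transcribed on-chip within common flanks. They are titrated with a labelled K4 kissing-loop RNA reporter in RNA-MaP buffer (100 mM Tris pH 7.5, 80 mM KCl, 4 mM MgCl2), without ligand or with the indicated ligand. Median apparent KD per design.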

[1] = input ligand: theophylline 20 uM
[2] = input ligand: tryptophan 2.4 mM
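Note: bound reporter read as fluorescence of individual clusters on recovered sequencing chips by microscopy, with normalized cluster intensities fitted with a binding model.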

Sequence	apparent KD of K4 kissing-loop reporter (input ligand: FMN 200 uM)	apparent KD of K4 kissing-loop reporter (input ligand: arginine 13.2 mM)	apparent KD of K4 kissing-loop reporter (input ligand: none)	apparent KD of K4 kissing-loop reporter [1]	apparent KD of K4 kissing-loop reporter [2]
UGUCAUUGGUCGGAUACCAGUUGAUGACGAAUACGUCAACUGGAGUGAUGUUCCUAAAACAACCCUUGGCAGCCGACCGAUGACU [MAT - Same State Theophlline B - Mod of Eli - D1]	937 nM	641 nM	852 nM	666 nM	761 nM
UUAGUCUAGAGAGGAUAUCAGUGAUGUUGAUAUCAAGAUCUGAGAUAGAAUUCUAUCUCAGAUCAAUGAGAAGGCUCUAGACAUU [AK1.2 Exc FMN B]	778 nM	151 nM	168 nM	147 nM	143 nM
CGCCGUAAGGCGGUCGCUCCCACUCCGGAAGGAGCGCCCGGAAGGGCAGGUAGGUCGCCGGAGUGAUGUUCCGGUGGAGGGACCG [#2 Exclusion - Arginine A Attempt #9 (Inspired by Omei)]	587 nM	295 nM	365 nM	270 nM	367 nM
CGCAAGCAGCCAGUGAUGUUGGCCGCCUUGCGAGGACCGGUACGGCCGCCACUCGAAGGCGGCUACUAGUAAACCGCCUAACGGA [KL-XTryp-A17]	105 nM	91.1 nM	95.6 nM	81.2 nM	184 nM
GGAGUUACCUGGGAUACCAGUCGGAGGCCCAGAGCUCGGAGUGAUGUUCUGGGAUGUUUCGGCCCUUGGCAGCUCUGGGUCUCCC [#2 Exclusion - Theophylline B Attempt #7 (HarryS)]	1690 nM	563 nM	1040 nM	895 nM	718 nM
AGCAGUGAUGUUGCAUUUAAAAUGACCGAUACCAGUAUCGAUAGAUACCCUUGGCAGCGGAUUUCCGCAACGACUAGGAAACUAG [Ex Theophylline A K4 15]	324 nM	377 nM	436 nM	504 nM	327 nM
AGAGUUAUGCGAGGAUAUGCAGUUAGUACUCAAAGAGUACUAACGGCAGAGUGAUGUUCUGUGAAAGCAGAAGGUGCAUAACUCA [Omei KL FMN B SS B v8]	195 nM	837 nM	1370 nM	857 nM	923 nM
UUGCGUCUCUGAGGAUAUCAGAACAGAGUGAUGUUCUGUCAACGCCCAGUGAUGUUGGAUGCGAUCUGAGAAGGCAGUGGGCGCG [Same State FMN B GF 10]	202 nM	188 nM	219 nM	177 nM	184 nM
UAUGAAGGUGGAGGAUAUUGAUUGAAUCUUGGUCUGGAGUGAUGUUCCGGGAAGCCUUGGAUUCAUCGAGAAGGCCAAGGAUAGU [Extra 1]	123 nM	269 nM	307 nM	263 nM	198 nM
CUAUAAGUGCCGAGUGAUGUUCGGCCAAUACGAGGACCGGUACGGCCGCCACUCGGUCAGUGGGUGCCCACCGGGCAUGGCUGAC [Cecezaa]	174 nM	217 nM	176 nM	227 nM	112 nM
CGGAUCGCAUCAGGAUAUCUCUCAUCAGUGAUGUUGGUGAAGCGUACGCGAAAGCGUACGCAGAUGAGAGAAGGGAUGCGAUCCG	467 nM	763 nM	1670 nM	766 nM	945 nM
CGAGCUUCCUGGGAUACCAGUCGGAGUCUCAGAGCUCGGAGUGAUGUUCUGGGAUGUUUCGGCCCUUGGCAGCUCUGGGACUCCU [#2 Exclusion - Theophylline B Attempt #20 (HarryS)]	1000 nM	576 nM	767 nM	883 nM	797 nM
CGCAAUAUUACGGAGUGAUGUUUCGUAGUCCGAGGACCGGUACGGCCGCCACUCGCUGGCGUUGGCCCAUAGACCGACGGAAUCG [theeternabot_sameState_KL_Trp_A_39]	246 nM	252 nM	257 nM	236 nM	238 nM
AAUAAUGGAGUGAUGUUCCAGUAAUGGGAUACCAGACAUGAAAAUGUCCCUUGGCAGCUCAAAGGUCUAGUGAUGUUAUAAAGAA [KL-SSTheo-A6]	475 nM	510 nM	554 nM	401 nM	377 nM
UGUACCGAGUGAGGAUAUGUCGUCGAAAGACGAAAUGGAGUGAUGUUCCUUAAACUGCGAAAGCAGACAGAAGGUACUUGGUACU [FmnBS 29 G11+U75]	144 nM	298 nM	302 nM	312 nM	275 nM
UUCGUCGCGCAUGAUACCAGCGAGAUUUAACGCCGAAUCCUCACGCAGUGAUGUUGCACCCGCCCUUGGCAGCAUAGCCGGUUAC [theeternabot_sameState_KL_Theo_B_13]	250 nM	304 nM	328 nM	344 nM	199 nM
GGAGGGAUCUCGGCCGCCACUCGUGGGAAAUGGGCCUCAGGGAUAUAGUGAUGUUAUGUAAAGAAGAGGACCGGGAGAAGGAAGG [ExTryptoB.Dg]	319 nM	269 nM	330 nM	366 nM	240 nM
UGAUACCAGACUGAUACCAGCUAGUGAUGUUAGCUGAUAAACAAACAGGCAAAGCCUGCUAGCCCUUGGCAGCAGUCUGGUAUCU [TheoBX 12 #SwitchBubble #StaticStem]	206 nM	180 nM	193 nM	359 nM	202 nM
GCACUCCAUCGGACGUAAGUGAUGUUUACCCGAGGACCGGUACGGCCGCCACUCGACCGUGCAUAACCAAAUCAAAUAGCUUCCG [theeternabot_exclusion_KL_Trp_A_31]	143 nM	127 nM	138 nM	120 nM	221 nM
GGAAUGCUGUAAGGAUAUCUCGGACGGUUACUCCGUUUCUCGCGUGUAAGAAUCUGAGUGAUGUUUAGAGAAGGUACGCUGGUUA [theeternabot_exclusion_KL_FMN_B_21]	178 nM	233 nM	240 nM	225 nM	149 nM
GGUAGCAUGGCGGCCGCCACUUAGACUGGAUCGGAAACGAUCCAGUGAAAACGAGUGAUGUUCGUAAGGACCGGGCCAUGCUACC	386 nM	301 nM	318 nM	350 nM	173 nM

Sequence	apparent KD of K4 kissing-loop reporter (input ligand: FMN 200 uM)	apparent KD of K4 kissing-loop reporter (input ligand: arginine 13.2 mM)	apparent KD of K4 kissing-loop reporter (input ligand: none)	apparent KD of K4 kissing-loop reporter [1]	apparent KD of K4 kissing-loop reporter [2]
GGCGCCAGGAAAGGAUAUCUAAGUCUAUUAUCAAGAAUUGCCUCAAGAUCGGAGUGAUGUUCCCAGAGAGAAGGUUCUAUCCGCU [theeternabot_exclusion_KL_FMN_B_38]	170 nM	193 nM	186 nM	206 nM	164 nM
UAUCUAUGCUCGGCCGCCACUAGGACCGGGAUCUCUCUAGUGAUGUUAGUCUGAUCGGCCGCCACUAGGACCGGGAGUGUAGAUA [KL-SSTryp-B15 #DoubleAptamer]	101 nM	88.7 nM	91.2 nM	104 nM	80.3 nM
UGUAUGUGAUUUGAUACCAGACCAGCUGGUGGUACCUGAGUGAUGUUCGGGAUGGUCUGGGUCCCUUGGCAGCAAAUCGCAUACU [KL-SSTheoB21]	295 nM	175 nM	254 nM	212 nM	212 nM
AAAAUAAGCCAGUGAUGUUGGUAUGCAGAUACCAGCGACGAAAGUCGCCCUUGGCAGCUGUGGACGUACAAAAUAAGUACGUCCU	253 nM	109 nM	329 nM	331 nM	179 nM
AAGUGAUGUUGUAGUGAUGUUGUGAUGUUGCAGGAUAUAUAGUGAUGUAGAAGGGUAAGUACUCAUGUUGUUAGUAAGUGAUGUU [bttutmullin]	91.5 nM	43.2 nM	81.7 nM	63.7 nM	74.2 nM
GUUAUUCUAAACGCAGUAGUGAUGUUGAUGCGAGGACCGGUACGGCCGCCACUCGACUGCCGUCACGCCCGUCCAACAGCCGGAG [theeternabot_exclusion_KL_Trp_A_20]	431 nM	142 nM	478 nM	254 nM	268 nM
AACCUACGAUCACAAUAGUGAUUGUAGGACUAGGAUAUGCUGAAAAGCAGAAGGAGUGAUGUUCCGUCAUGAAUAACAUGACAAA [FmnAX 3 #OpenEnded #K4Late #CoaxialStacking]	610 nM	465 nM	455 nM	497 nM	357 nM
GUAUCGCUAGGAGGAUAUUCCAUUUUACAUAGAAAUGGCUAUGCGAAGUGAUGUUUCGAUUUACGGGAAGAAGGCCUAGUGAUAC [FMN B 22]	160 nM	148 nM	148 nM	177 nM	155 nM
UGAUACCAGACUGAUACCAGCUAGUGAUGUUAGCUGAAAUCAGGGUCAAAGACCCUGUCUAGCCCUUGGCAGCAGUCUGGUAUCU [TheoBX 9 #SwitchBubble #StaticStem]	107 nM	93.8 nM	98.3 nM	133 nM	91.5 nM
UGUGAUGUGUAGUGUAAUGUUUUGCGGGAUACCAGAGUCUUUUUAUUCCCUUGGCAGCUUGAGUGAUGUUUGAUGCUGUUCUUGU [llmdmullin]	519 nM	351 nM	479 nM	439 nM	326 nM
UGAUUUAACUGAAGGAGCGGCAAUUGAUAAGUAAAUAUAGUGAUGUUAUAUAAGAUAGAGAGCCAGGUAGGUCGCAGAGGUAUGA [ExArgB.L]	193 nM	159 nM	158 nM	150 nM	139 nM
UCUGGAGUAUAUGAUACCAGCAGUGAGAGACAGGAAGUAUAGUGAUGUUAUAUGAGAGAAUGCCCUUGGCAGCGUGUGCGGUGGC [SSTheophylB.Q]	118 nM	77.8 nM	61.6 nM	81.4 nM	58.3 nM
CUUGGAAGGACGGCCGCCACUGGGCAGUGAUGUUGCCCGACCAGGUAACGCAGUGAUGUUGCGACCAGGACCGGGUCCUAGGAAU [Exclusion Tryptophan B GF 24]	161 nM	140 nM	155 nM	136 nM	105 nM
GACAACAGGGUGAGACUCACGGCGCCAGAAGGAGCGGUGAUUCCACCAGGUAGGUCGCUGGCCCAGUGAUGUUGGGCUUUGUGUC [Onoran]	129 nM	120 nM	138 nM	133 nM	123 nM
UGUCAUUGGUCUGAUACCAGAAGAUAAUCUGGAGUGAUGUUCCAAGUACGACAAAGUCGCUUCCCUUGGCAGCAGACCGAUGACU [TheoBS 19 #SwitchBubble 13 #StaticStem]	1040 nM	759 nM	1110 nM	619 nM	886 nM
AGUUCUUGCCGAAGGAGCGAGGCAGAGUGAUGUUCUGCAAAGAGGUCGAAAGACCUCCUGCCUCAGGUAGGUCGCGGCAUGAACA [Omei KL Arginine B Exc A v5]	814 nM	942 nM	652 nM	509 nM	1260 nM
AAUAUAUAGUGAAGGAGCGCGAUAAGCAGUGAUGUUGCUUAGUUAUUAGUGUUUAUUUUUACGCAGGUAGGUCGCACUAUAUAUA [JR_ExcArginiB_Sub017]	115 nM	105 nM	114 nM	101 nM	114 nM
UGAGGGAUCUCGGCCGCCACUCGUGGGAAAUGGGCCUCAGGGAUAUAGUGAUGUUAUGUAAAGAAGAGGACCGGGAGAAGGAAGG [ExTryptoB.Dh]	230 nM	229 nM	320 nM	386 nM	203 nM
CAAAUAAAUAUAAUUGAUAAGUGAUGUUGGCGAGGACCGGUACGGCCGCCACUCGAUAUCGGUCCAUUAACCGAGUGAUGUUUGG [Default title]	102 nM	58.9 nM	81.1 nM	67.4 nM	83.7 nM
CACCCUAGUUCAGAUACCAGACUAGAGACAGUGAUGUUGUCACAUCCUAAAUUGGGUGUAGUCCCUUGGCAGCUGAGUAAUCUGC [Theo B/Ex/SS double]	600 nM	635 nM	724 nM	596 nM	540 nM
AUGCGCGCGGCGGCCGCCACUCGCAUGAGAGUGAUGUUCUCGCCGUGCCCGCAAGGGUGCGGUGUGAGGACCGGGCCGGGCUGCG [#2 Same State - Tryptophan B Attempt #19 (HarryS)]	562 nM	143 nM	194 nM	154 nM	302 nM

Reference: the supplement of paper PMC9170038
